Test results from paper PMC2854499 (Nature, 2008).

Biological target: T1, MBP-tagged WSTF C-motif (208-345) (human, UniProt Q9UIG0 208-345)
T1 sequence (looked up): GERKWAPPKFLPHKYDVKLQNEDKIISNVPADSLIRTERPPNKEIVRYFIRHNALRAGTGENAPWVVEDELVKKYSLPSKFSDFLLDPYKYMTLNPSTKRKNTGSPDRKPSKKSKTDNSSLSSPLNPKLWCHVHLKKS
Experiment: pull-down + SEC

stoichiometry N: 1
B1: GST-tagged WSTF N-motif (1-205) (domain or fragment, human, UniProt Q9UIG0 1-205, looked up)
chain: MAPLLGRKPFPLVKPLPGEEPLFTIPHTQEAFRTREEYEARLERYSERIWTCKSTGSSQLTHKEAWEEEQEVAELLKEEFPAWYEKLVLEMVHHNTASLEKLVDTAWLEIMTKYAVGEECDFEVGKEKMLKVKIVKIHPLEKVDEEATEKKSDGACDSPSSDKENSSQIAQDHQKKETVVKEDEGRRESINDRARRSPRKLPTSL
